No end group written: not given here.
Experiments:
Test in all cases: ELISA, biotinylated 12-mer peptide on streptavidin, 2 ug/mL FLAG-tagged VHH, anti-FLAG-HRP
[1] = biological target: T1, FX activation peptide 12-mer QATSSSGEAPDS (SEQ ID NO:696) (human)
T1 peptide: QATSSSGEAPDS-biotin
Method: (§1) To determine whether the binding epitope of the anti-FX VHH polypeptide designated “cmpd #1” are located inside the activation peptide (AP) of human FX (SEQ ID NO:2), an ELISA assay was setup. 41 unique 12-mer peptide fragments spanning the 52 residues of the activation peptide with one amino acid spacing were immobilized in microtiter plate wells followed by incubation with the VHH polypeptide to be tested, and detection of bound ligand was performed by addition of a secondary HRP-labelled antibody.
(§2) The peptides were C-terminally conjugated to biotin and 50 μL of 1 μg/mL peptide solution was used for immobilization in discrete wells of the microtiter plate which was pre-coated with 1 μg/mL streptavidin. Each well was washed with washing buffer (10 mM Tris, 150 mM NaCl, 2.5 mM CaCl₂, 0.05% Tween 20, pH 8.60) followed by addition of 50 μL of 2 μg/mL FLAG-tagged anti-FX VHH polypeptide or IgG antibody to be tested. After 1 hour non-bound VHH polypeptide was washed off using washing buffer.
(§3) Bound anti-FX activation peptide ligand was detected by first binding a HRP-labelled secondary antibody (for FLAG-tagged VHH polypeptide: Anti-FLAG mAb M2-Peroxidase (HRP) (Sigma Aldrich, US) for 1 hour, and then adding 100 μL TMB-1 ELISA substrate (Kem-En-Tec Diagnostics, Denmark).

[2] = biological target: T2, FX activation peptide 12-mer TENPFDLLDFNQ (SEQ ID NO:721) (human)
T2 peptide: TENPFDLLDFNQ-biotin
Method: as §1, §2, §3

[3] = biological target: T3, FX activation peptide 12-mer PDSITWKPYDAA (SEQ ID NO:705) (human)
T3 peptide: PDSITWKPYDAA-biotin
Method: as §1, §2, §3

[4] = biological target: T4, FX activation peptide 12-mer QTQPERGDNNLT (SEQ ID NO:732) (human)
T4 peptide: QTQPERGDNNLT-biotin
Method: as §1, §2, §3

[5] = biological target: T5, FX activation peptide 12-mer … (SEQ ID NO:727) (human)
T5 sequence (peptide, C-terminally conjugated to biotin): LLDFNQTQPERG

B1: Cmpd #1 (monovalent anti-FX VHH polypeptide, VHH-1.1) (VHH)
VHH: EVQLVESGGGLVQPGGSLRLSCAASGSIGAFDAMGWYRQAPGKQRELVAGIMVSRGNTNYTDSVKGRFTISRDNAKNTVYLQMNSLKPEDTAVYYCKAVKRPGPGYLEVWGQGTLVTVSS
notes: no protractor; FLAG-tagged in the peptide ELISA
- ELISA signal normalized relative to the background signal [1]: 0.96 fold of background
- ELISA signal normalized relative to the background signal [2]: 4.84 fold of background
- ELISA signal normalized relative to the background signal [3]: 1.05 fold of background
- ELISA signal normalized relative to the background signal [4]: 0.88 fold of background
- ELISA signal normalized relative to the background signal (fold of background) [5]: 1.88
